Assay results from patent US20140302043A1.

Molecular target: hemagglutinin (HA) of H1N1 virus strain A/Brazil/1403/2003 (influenza A virus H1N1, A/Brazil/1403/2003)
Experiment: cell-based or functional assay

“mAb CH65, recombinant intact IgG1 (antibody)” was tested. Which mAb minimum effective concentration (EC99, microneutralization on MDCK cells) did it give?
The mAb minimum effective concentration (EC99, microneutralization on MDCK cells) was 3.12 µg/mL.

How did the mAb minimum effective concentration (EC99, microneutralization on MDCK cells) turn out when mAb CH67 (antibody) was run?
The mAb minimum effective concentration (EC99, microneutralization on MDCK cells) was 0.195 µg/mL.
